Residue numbers refer to the chain shown, from its start. In names and notes the source's numbering stands.

The values below come from PMC5508204, “Escherichia coli FtsA forms lipid-bound minirings that antagonize lateral interactions between FtsZ protofilaments” (Nature Communications, 2017).

Sequences and labels used below:
B1: Escherichia coli FtsZ (natural protein, E. coli, UniProt P0A9A6 1-383, looked up)
chain: MFEPMELTNDAVIKVIGVGGGGGNAVEHMVRERIEGVEFFAVNTDAQALRKTAVGQTIQIGSGITKGLGAGANPEVGRNAADEDRDALRAALEGADMVFIAAGMGGGTGTGAAPVVAEVAKDLGILTVAVVTKPFNFEGKKRMAFAEQGITELSKHVDSLITIPNDKLLKVLGRGISLLDAFGAANDVLKGAVQGIAELITRPGLMNVDFADVRTVMSEMGYAMMGSGVASGEDRAEEAAEMAISSPLLEDIDLSGARGVLVNITAGFDLRLDEFETVGNTIRAFASDNATVVIGTSLDPDMNDELRVTVVATGIGMDKRPEITLVTNKQVQQPVMDRYQQHGMAPLTQEQKPVAKVVNDNAPQTAKEPDYLDIPAFLRKQAD
notes: FtsZ, tubulin homologue, Escherichia coli, wild type; Assembled with GTP in the assay; also called WT FtsZ; source: E. coli BL21(DE3), from a pET11 plasmid, purified (ammonium sulfate precipitation)
B2: FtsZ* (FtsZ L169R) (natural protein, E. coli, UniProt P0A9A6 1-383, looked up)
chain: B1 chain with L169R
notes: FtsZ, Escherichia coli, gain-of-function mutant L169R (FtsZ*); Assembled with GTP in the assay; source: E. coli BL21(DE3), from a pET11 plasmid, purified (ammonium sulfate precipitation)
B3: Escherichia coli FtsA (natural protein, E. coli, UniProt P0ABH0 1-420, looked up)
chain: MIKATDRKLVVGLEIGTAKVAALVGEVLPDGMVNIIGVGSCPSRGMDKGGVNDLESVVKCVQRAIDQAELMADCQISSVYLALSGKHISCQNEIGMVPISEEEVTQEDVENVVHTAKSVRVRDEHRVLHVIPQEYAIDYQEGIKNPVGLSGVRMQAKVHLITCHNDMAKNIVKAVERCGLKVDQLIFAGLASSYSVLTEDERELGVCVVDIGGGTMDIAVYTGGALRHTKVIPYAGNVVTSDIAYAFGTPPSDAEAIKVRHGCALGSIVGKDESVEVPSVGGRPPRSLQRQTLAEVIEPRYTELLNLVNEEILQLQEKLRQQGVKHHLAAGIVLTGGAAQIEGLAACAQRVFHTQVRIGAPLNITGLTDYAQEPYYSTAVGLLHYGKESHLNGEAEVEKRVTASVGSWIKRLNSWLRKEF
notes: FtsA, actin homologue of the divisome, Escherichia coli, wild type; ATP is thought to be present in the preparation; 0.05 mM ADP was added for storage; also called WT FtsA; His6-tagged FtsA

Data set [1] concerns the molecule itself. As to the kind of experiment: negative stain transmission electron microscopy on lipid monolayers; E. coli polar lipid monolayer under an EM grid, on storage buffer lacking EDTA (50 mM Tris pH 7.5, 250 mM KCl, 10 mM MgCl2, 10% glycerol). Added in turn: 0.1-1 uM FtsA (40 min), 4 mM ATP (20 min), 5 uM FtsZ (5 min), 4 mM GTP (20 min). Stained with 1% uranyl acetate.

The data set “Escherichia coli FtsA” deals with B3. The data set is described as above. Particulars: both partners purified.
Data set [2] concerns the molecule itself. The data set can be described thus: negative stain electron tomography with subtomogram averaging; FtsA minirings with FtsZ protofilaments on lipid monolayers; 300 kV, single-axis tilt series -60 to +60 degrees; 23 tomograms; 18,400 ring-like structures averaged and classified.

Take B1: the binding result (in data set [1]; with Escherichia coli FtsA) was “binds” in each case.

In the case of B2, the binding result (in data set [1]; in the data set with Escherichia coli FtsA) was “binds” throughout. As for B3, the “stoichiometry N” value in data set [2] turned out to be 12 subunits.

The stoichiometry N is a count of units in the complex or per binding partner.
